{
  "source": "paper doi:10.1101/2024.05.17.594632",
  "about": "(bioRxiv, 2024)",
  "proteins": {"B1": {"name": "full-length phytochrome from Pseudomonas aeruginosa (PaBphP) (enzyme)", "chain": "MTSITPVTLANCEDEPIHVPGAIQPHGALVTLRADGMVLAASENIQALLGFVASPGSYLTQEQVGPEVLRMLEEGLTGNGPWSNSVETRIGEHLFDVIGHSYKEVFYLEFEIRTADTLSITSFTLNAQRIIAQVQLHNDTASLLSNVTDELRRMTGYDRVMAYRFRHDDSGEVVAESRREDLESYLGQRYPASDIPAQARRLYIQNPIRLIADVAYTPMRVFPALNPETNESFDLSYSVLRSVSPIHCEYLTNMGVRASMSISIVVGGKLWGLFSCHHMSPKLIPYPVRMSFQIFSQVCSAIVERLEQGRIAELLRVSTERRLALARRARDADDLFGALAHPDDGIAALIPCDGALVMLGGRTLSIRGDFERQAGNVLQRLQRDPERDIYHTDNWPQPSEDSPDGGDCCGVLAIRFHRQESGWIFWFRHEEVHRIRWGGKPEKLLTIGPSGPRLTPRGSFEAWEEVVRGHSTPWSETDLAIAEKLRLDLMELCLNHAAEVDRMRQRLIAVLGHDLRNPLQSISMAAALLSSSDTRTTELRQHISASSSRMERLVSQILDMSRLQSGIGLTVNPVDTDVSQLVRQIVCETDVAYPGLVIEIAIDPQVRAVVDPDRYAQVAANLLSNARHHGLPGRPVLVTLTRQGDEVCLSVLNETSGLSEAQLANLFEPFKRESADNQRNRNGLGIGLYISQAIAQAHQGRIDVDCRDDVITFCLRLPVRQAETGSSS", "modifications": "biliverdin chromophore (15Z in Pr, 15E in Pfr)"}},
  "target": "the molecule itself",
  "test": "cryo-EM structure",
  "data": [
    {"protein": "B1", "values": [
      {"measurement": "stoichiometry N", "value": 2}
    ]}
  ]
}
